This is an account of results in PMC7482062.

Experiment [1] has as its target P113 (Plasmodium falciparum) (UniProt Q8ILP3). Conditions: cited from earlier work.
Experiment [2] has as its target P113 N-terminal fragment D106K E107K mutant, biotinylated bait (Plasmodium falciparum (3D7 strain)) (UniProt Q8ILP3). Description: SPR; […]; Biacore 8K, 37°C, HBS-EP.

As a reminder, the Kd is the constant that tells how readily two partners part at equilibrium. For the substance RH5 (from UniProt Q8IFM5), the Kd in experiment [1] was 300 nM.

As for “RH5, purified monomeric protein (from UniProt Q8IFM5 25-526) (ligand)”, the fold reduction in dissociation half-life against wild type in experiment [2] came out at 2 fold.
